Assay [1] concerns RAW264.7 cells. Description: Expression of M2 and M1 macrophage markers in RAW264.7 cells cultured with activin A or activin B (TaqMan PCR). The settings on record: 10 or 30 ng/mL added individually, 8 hours. Format: cell-based. How it is done: Each of activin A (10 ng/mL or 30 ng/mL) and activin B (10 ng/mL or 30 ng/mL) was individually added to RAW264.7 cells. Human Recombinant (R&D Systems, 338AC005) and Recombinant (R&D Systems, 659AB005) were used for activin A and activin B, respectively. After eight hours, RNeasy Mini Kit (250) (Qiagen, Cat. Number 74106) was used for recovering the cells to extract RNA.
The RNA extracted at step (1) was used for performing a reverse transcription reaction in accordance with the protocol of High Capacity cDNA Reverse Transcription Kit with RNase Inhibitor (ABI) to perform TagMan PCR. Arginase-1 was selected as an M2 macrophage marker and IL-6 and MCP-1 were selected as M1 macrophage markers to create respective TaqMan probes. Each of mRNA expression levels is represented by a multiple when an expression level of cyclophilin A mRNA in the same sample is defined as one (hereinafter, the same applies to the examples using TaqMan PCR unless otherwise stated).
In general terms: In qPCR the cycle at which signal appears reflects the starting amount.

For assay [2], the system named is RAW264.7 cells. Put plainly: Expression of M2 macrophage markers in RAW264.7 cells cultured with activin A and SB431542. Conditions: activin A 10 or 30 ng/mL, 24 hours. Format: cell-based. As to the method: Activin A (10 ng/mL or 30 ng/mL) and SB431542 (0.1 to 1 μM, Santa Cruz Biotechnology, Inc., sc-204265) were added to RAW264.7 cells in combination as depicted in FIG. 2. Human Recombinant (R&D Systems, 338AC005) was used for activin A. After 24 hours, RNeasy Mini Kit (250) (Qiagen, Cat. Number 74106) was used for recovering the cells to extract RNA. The RNA extracted at step (1) was used for performing a reverse transcription reaction in accordance with the protocol of High Capacity cDNA Reverse Transcription Kit with RNase Inhibitor (ABI) to perform TaqMan PCR. Arginase-1, Mrc2 (mannose receptor 2), and IL-10 were selected as M2 macrophage markers to create respective TaqMan probes.

In assay [3] the test system is db/db mice. Put plainly: Arginase-1 mRNA expression in visceral fat of db/db mice given recombinant adenovirus. The assay is classed as in vivo. Conditions: activin expressed by recombinant adenovirus via tail vein once a week for two weeks, compared to control. An excerpt:
(§1) Full-length mouse inhibin βA cDNA or full-length mouse inhibin βB cDNA was amplified by using pcDNA3.1/V5-HisA (Invitrogen) in accordance with the recommended method. The amplified product was subjected to HindIII and EcoRV treatments and used for production of recombinant adenovirus. The recombinant adenovirus of inhibin βA or inhibin βB was produced by using Takara Adenovirus Expression Vector Kit (Takara) in accordance with the recommended method. For negative control, β-galactosidase-gene-containing virus attached to the kit was used. The adenovirus was transfected to HEK293 cells by using CellPhect (registered trademark) Transfection Kit (GE Healthcare) with the calcium phosphate method.
After seven-week-old male db/db mice were adapted for one week, 5.0×10^11 pfu/mL of the recombinant adenovirus was lysed in 150 μL of PBS and administered from the tail vein once a week for two weeks. Visceral fat was collected on seventh day after the second administration for performing a reverse transcription reaction in accordance with the protocol of High Capacity cDNA Reverse Transcription Kit with RNase Inhibitor (ABI) and the expression analysis of arginase-1 was performed with TaqMan PCR.

Assay [4] relates to high-fat diet-fed B6 mice. Put plainly: Arginase-1 mRNA expression in visceral fat of high-fat diet-fed B6 mice given recombinant adenovirus. The assay is classed as in vivo. The settings on record: twelve-week high-fat diet B6 mice, activin expressed by recombinant adenovirus via tail vein once a week for two weeks.
Source text: as §1
After five-week-old male B6 mice were adapted with normal diet for one week, high-fat diet was fed for twelve weeks. The recombinant adenovirus (5.0×10^11 pfu/mL) was lysed in 150 μL of PBS and administered to mice in the 18th week from the tail vein once a week for two weeks. Visceral fat was collected on seventh day after the second administration for performing reverse transcription in accordance with the protocol of High Capacity cDNA Reverse Transcription Kit with RNase Inhibitor (ABI) and the expression analysis of arginase-1 was performed with TaqMan PCR.

The subject of assay [5] is RAW264.7 cells. Description: Macrophage marker expression in RAW264.7 cells with activin A, activin B or SB431542 and palmitic acid. The settings on record: 8 hours. The assay is classed as cell-based. As to the method: (1) Induction of Macrophages by Activin Species Activin A (10 ng/mL), activin B (10 ng/mL), and SB431542 (0.1 to 1 μM) were added to RAW264.7 cells in combination as depicted in FIG. 4. Human Recombinant (R&D Systems, 338AC005) and Recombinant (R&D Systems, 659AB005) were used for activin A and activin B, respectively. After 30 minutes, palmitic acid (a proinflammatory substance) was added to the final concentration of 200 μM and, after eight hours, RNeasy Mini Kit (250) (Qiagen, Cat. Number 74106) was used for recovering the cells to extract RNA. The RNA extracted at step (1) was used for performing a reverse transcription reaction in accordance with the protocol of High Capacity cDNA Reverse Transcription Kit with RNase Inhibitor (ABI) to perform TaqMan PCR. Arginase-1 was selected as an M2 macrophage marker and IL-6 and MCP-1 were selected as M1 macrophage markers to create respective TaqMan probes. Analysis was performed in the same way as the expression analysis of macrophage markers of Example 1.

For assay [6], the system named is RAW264.7 cells. Put plainly: Arginase-1 expression in RAW264.7 cells with activin A, Fstl3, anti-Fstl3 antibody or mouse IgG and palmitic acid. Conditions: activin A 10 ng/mL, under induction of inflammation by palmitic acid 200 μM. The assay is classed as cell-based. As to the method: Fstl3 (30 ng/mL), an anti-Fstl3 antibody or mouse IgG (0.3 to 10 μg/mL), and activin A (10 ng/mL) were added to RAW264.7 cells in combination as depicted in FIG. 6. Human Recombinant (R&D Systems, 338AC005), Recombinant (R&D Systems, 659AB005), and Follistatin-like 3 Recombinant (R&D Systems, 1255F3025) were used for activin A, activin B, and Fstl3, respectively. After 30 minutes, palmitic acid (a proinflammatory substance) was added to the final concentration of 200 μM and, after eight hours, RNeasy Mini Kit (250) (Qiagen, Cat. Number 74106) was used for recovering the cells to extract RNA.
The RNA extracted at step (1) was used for performing a reverse transcription reaction in accordance with the protocol of High Capacity cDNA Reverse Transcription Kit with RNase Inhibitor (ABI) to perform TaqMan PCR. Arginase-1 was selected as an M2 macrophage marker to create TaqMan probes.

The test system of assay [7] is high-fat diet-fed B6 mice. Put plainly: Glucose tolerance test (GTT) in high-fat diet-fed B6 mice given recombinant adenovirus. The assay is classed as in vivo. Conditions: activin expressed by recombinant adenovirus, glucose 1.0 mg/g-BW into abdominal cavity. How it is done: Adenovirus was produced in the same way as the production of recombinant adenovirus in Example 3.
After five-week-old male B6 mice were adapted with normal diet for one week, high-fat diet was fed for twelve weeks. The recombinant adenovirus (5.0×10^11 pfu/mL) was lysed in 150 μL of PBS and administered to mice in the 18th week from the tail vein once a week for two weeks. A glucose tolerance test (GTT) was performed on seventh day after the second administration.
The GTT was performed as follows. Into the abdominal cavities of mice fasted for 16 hours from the previous day of the test, 1.0 mg/g-BW of glucose (diluted by physiological saline) was administered. Serum was separated from collected whole blood and glucose concentration was measured by Glucose-Test Wako (manufactured by Wako Pure Chemical Industries).

The mark [8] stands for this setting: activin 10 ng/mL, palmitic acid 200 μM.

B1: activin A: Human Recombinant (R&D Systems, 338AC005); in Examples 3 and 7 expressed by inhibin βA recombinant adenovirus (protein, UniProt P08476 311-426, looked up)
Inhibin beta A chain: GLECDGKVNICCKKQFFVSFKDIGWNDWIIAPSGYHANYCEGECPSHIAGTSGSSLSFHSTVINHYRMRGHSPFANLKSCCVPTKLRPMSMLYYDDGQNIIKKDIQNMIVEECGCS
modifications: Inhibin beta A chain homodimer
Take B1: in assay [1], the “expression level of IL-6 (M1 macrophage marker)” value is recorded as “not changed” and the “expression level of MCP-1 (M1 macrophage marker)” value is listed as “not changed”. Moreover, the “expression of arginase-1 (M2 macrophage marker)” value in assay [1] (mRNA relative to cyclophilin A) is reported as “remarkably increased”. Besides, in assay [2], the “expression of IL-10” value is given as “remarkably increased”, the “expression of Mrc2” value is “remarkably increased” and the “expression of arginase-1” value was “remarkably increased”. Besides, in assay [3], the “expression of arginase-1 in visceral fat” value is “no difference from the control”. In assay [4], the “expression level of arginase-1 in visceral fat” value is given as “slightly increased”. Also, the “expression level of arginase-1” value in assay [5] (activin 10 ng/mL present, palmitic acid 200 μM added, compared to control) is “remarkably increased”. In assay [5] (setting [8]), the “expression level of MCP-1, effect of activin addition” value was “not changed” and the “expression of IL-6, effect of activin addition” value is “slightly reduced”. In addition, the “expression level of arginase-1” value in assay [6] is reported as “increased”. Moreover, the “glucose metabolism in glucose tolerance test (GTT)” value in assay [7] was “improved glucose metabolism”.

These data come from patent US20130143812A1, “ANTI-INFLAMMATORY DRUG” (SEKISUI MEDICAL CO., LTD., priority 2010, published 2013).
